Positions count from the first letter of the chain named.

From patent US20220363770A1 (Amgen, published 2022) come the findings set out here.

T1: human PAC1 receptor (human, UniProt P41586 24-468)
T1 sequence: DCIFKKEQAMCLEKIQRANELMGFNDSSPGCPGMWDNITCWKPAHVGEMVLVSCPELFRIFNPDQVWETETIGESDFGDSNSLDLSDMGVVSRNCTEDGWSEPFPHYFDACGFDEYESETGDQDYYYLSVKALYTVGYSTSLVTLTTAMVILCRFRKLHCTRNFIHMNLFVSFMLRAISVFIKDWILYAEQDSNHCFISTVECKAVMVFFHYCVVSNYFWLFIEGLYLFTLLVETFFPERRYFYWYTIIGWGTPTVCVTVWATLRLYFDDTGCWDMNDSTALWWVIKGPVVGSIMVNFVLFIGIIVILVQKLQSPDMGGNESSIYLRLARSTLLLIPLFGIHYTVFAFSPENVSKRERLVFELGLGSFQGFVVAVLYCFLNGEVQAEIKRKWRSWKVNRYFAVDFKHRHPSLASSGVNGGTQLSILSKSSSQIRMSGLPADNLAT

B1: iPS:454833 (bispecific antibody, human IgG1, kappa, lambda, N297G)
light 1: QSVLTQPPSVSAAPGQKVTISCSGSRSNIGIKAVSWYQQLPGTAPKLLIYDNNKRPSGIPDRFSGSKSGTSATLGITGLQTGDEADYYCGTWDSRLSAVVFGGGTKLTVLGQPKAAPSVTLFPPSSEELQANKATLVCLISDFYPGAVTVAWKADSSPVKAGVETTTPSKQSNNKYAAKSYLSLTPEQWKSHRSYSCQVTHEGSTVEKTVAPTECS
heavy 1: QVQLVESGGGVVQPGRSLRLSCAASGFTFSSFGMHWVRQAPGKGLEWVAVISFDGSIKYSVDSVKGRFTISRDNSKNTLFLQMNSLRAEDTAVYYCARDRLNYYESSGYYHYKYYGMAVWGQGTTVTVSSASTKGPSVFPLAPSSKSTSGGTAALGCLVKDYFPEPVTVSWNSGALTSGVHTFPAVLQSSGLYSLESVVTVPSSSLGTQTYICNVNHKPSNTKVDKKVEPKSCDKTHTCPPCPAPELLGGPSVFLFPPKPKDTLMISRTPEVTCVVVDVSHEDPEVKFNWYVDGVEVHNAKTKPCEEQYGSTYRCVSVLTVLHQDWLNGKEYKCKVSNKALPAPIEKTISKAKGQPREPQVYTLPPSRKKMTKNQVSLTCLVKGFYPSDIAVEWESNGQPENNYKTTPPVLKSDGSFFLYSKLTVDKSRWQQGNVFSCSVMHEALHNHYTQKSLSLSPGK
light 2: EIVLTQSPATLSLSPGERATLSCRASKSVGRSLHWYQQKPGQAPRLLIKYASQSLSGIPARFSGSGSGTDFTLTISSLEPEDFAVYYCHQSSRLPFTFGPGTKVDIKRTVAAPSVFIFPPSDEQLKSGTASVVCLLNNFYPREAKVQWKVDNALQSGNSQESVTEQDSKDSTYSLESTLTLSKADYEKHKVYACEVTHQGLSSPVTKSFNRGEC
heavy 2: not shown
B2: iPS:454841 (bispecific antibody, human IgG1, kappa, lambda, N297G)
light 1: B1 light 1
heavy 1: B1 heavy 1
light 2: B1 light 2 with R31W
heavy 2: not shown
B3: iPS:454835 (bispecific antibody, human IgG1, kappa, lambda, N297G)
light 1: B1 light 1
heavy 1: B1 heavy 1
light 2: B1 light 2
heavy 2: not shown
B4: iPS:454843 (bispecific antibody, human IgG1, kappa, lambda, N297G)
light 1: B1 light 1
heavy 1: B1 heavy 1
light 2: B1 light 2 with R31W
heavy 2: not shown
B5: iPS:454837 (bispecific antibody, human IgG1, kappa, lambda, N297G)
light 1: B1 light 1
heavy 1: B1 heavy 1
light 2: B1 light 2 with S28A, R31W
heavy 2: not shown
B6: iPS:454845 (bispecific antibody, human IgG1, kappa, lambda, N297G)
light 1: B1 light 1
heavy 1: B1 heavy 1
light 2: B1 light 2 with R31W
heavy 2: not shown
B7: iPS:454839 (bispecific antibody, human IgG1, kappa, lambda, N297G)
light 1: B1 light 1
heavy 1: B1 heavy 1
light 2: B1 light 2 with R31W
heavy 2: not shown

The target of the first assay is human CGRP receptor (human, UniProt Q16602 23-461; O60894 27-148). As to the kind of experiment: cell-based or functional assay.
human CGRP receptor, sequence (Q16602 23-461 limits assumed, chain 1 of 2): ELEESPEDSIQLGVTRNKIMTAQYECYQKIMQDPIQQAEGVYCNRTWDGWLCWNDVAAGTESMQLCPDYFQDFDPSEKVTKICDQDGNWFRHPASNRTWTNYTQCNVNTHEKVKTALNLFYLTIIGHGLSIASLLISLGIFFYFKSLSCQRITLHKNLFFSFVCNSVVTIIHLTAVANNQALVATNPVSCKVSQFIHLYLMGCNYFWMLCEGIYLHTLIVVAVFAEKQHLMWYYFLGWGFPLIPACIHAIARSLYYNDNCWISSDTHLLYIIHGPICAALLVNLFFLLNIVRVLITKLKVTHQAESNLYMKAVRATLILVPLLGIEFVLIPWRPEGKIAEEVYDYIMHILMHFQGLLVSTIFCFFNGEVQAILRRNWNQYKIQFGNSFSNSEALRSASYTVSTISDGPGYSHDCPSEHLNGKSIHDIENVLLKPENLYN
human CGRP receptor, sequence (O60894 27-148 limits assumed, chain 2 of 2): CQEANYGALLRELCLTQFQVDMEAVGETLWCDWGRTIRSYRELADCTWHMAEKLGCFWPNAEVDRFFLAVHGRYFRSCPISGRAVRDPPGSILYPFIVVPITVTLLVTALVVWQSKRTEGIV
By IC50 is commonly meant the concentration needed to halve the response being measured. High values mean weaker potency in that assay, low ones greater potency in that assay. Consider B1, for which the “Fold-improvement over 4E4 Ab” value amounted to 2.6 fold and the midpoint of inhibition, the IC50, lay at 0.24 nM.

In the case of B2, the “Fold-improvement over 4E4 Ab” value came out at 1.4 fold and the “IC50” value worked out at 0.46 nM.

Take B3: the “Fold-improvement over 4E4 Ab” value came to 2.2 fold and the 50% inhibitory concentration (IC50) was 0.28 nM.

B4: the “Fold-improvement over 4E4 Ab” value was found to be 1.6 fold and half-maximal inhibition (IC50) was put at 0.42 nM.

Take B5: the “Fold-improvement over 4E4 Ab” value worked out at 1.4 fold and inhibition was half-maximal at 0.45 nM (IC50).

For the molecule B6, the “Fold-improvement over 4E4 Ab” value turned out to be 1.7 fold and the “IC50” value amounted to 0.4 nM.

B7: the “Fold-improvement over 4E4 Ab” value is 1.8 fold and half-maximal inhibition (IC50) required 0.36 nM.

In a further assay the target is T1, human PAC1 receptor. Briefly: cell-based or functional assay.
As for B1, the “Fold-improvement over 29G4v22 Ab” value was found to be 9 fold and the “IC50” value came to 0.76 nM.

Turning to B2, the “Fold-improvement over 29G4v22 Ab” value amounted to 8.8 fold and the “IC50” value came to 0.78 nM.

For B3, the “Fold-improvement over 29G4v22 Ab” value worked out at 9.3 fold and the concentration for half-maximal inhibition (IC50) amounted to 0.73 nM.

For B4, the “Fold-improvement over 29G4v22 Ab” value worked out at 5.8 fold and the 50% inhibitory concentration (IC50) turned out to be 0.93 nM.

For the molecule B5, the “Fold-improvement over 29G4v22 Ab” value came to 6.8 fold and the half-inhibitory concentration (IC50) was found to be 1.01 nM.

B6: the “Fold-improvement over 29G4v22 Ab” value worked out at 8.2 fold and the “IC50” value amounted to 0.66 nM.

For the molecule B7, the “Fold-improvement over 29G4v22 Ab” value amounted to 8.6 fold and the 50% inhibitory concentration (IC50) was found to be 0.79 nM.
